From US20240401101A1, “A LIVE CELL ASSAY TO DETERMINE PERMEABILITY OF TEST MOLECULES TO AND/OR WITHIN THE PEPTIDOGLYCAN SCAFFOLD OF BACTERIA CELLS” (priority 2021, published 2024)

Test system: S. aureus (ATCC 25923)
Assay: Enzymatic degradation of fluorescently labeled whole cells (mutanolysin / proteinase K), incl. BONCAT control
Assay type: cell-based, Staphylococcus aureus

B1: proteinase K: promiscuous protease (protein, UniProt P06873 106-384, looked up)
Proteinase K: AAQTNAPWGLARISSTSPGTSTYYYDESAGQGSCVYVIDTGIEASHPEFEGRAQMVKTYYYSSRDGNGHGTHCAGTVGSRTYGVAKKTQLFGVKVLDDNGSGQYSTIIAGMDFVASDKNNRNCPKGVVASLSLGGGYSSSVNSAAARLQSSGVMVAVAAGNNNADARNYSPASEPSVCTVGASDRYDRRSSFSNYGSVLDIFGPGTSILSTWIGGSTRSISGTSMATPHVAGLAAYLMTLGKTTAASACRYIADTANKGDLSNIPFGTVNLLAYNNYQA
50 μg/mL mutanolysin or 500 μg/mL proteinase K, mutanolysin read at 120 minutes
  cellular fluorescence of D-cystine/Mal-Fl labeled cells during enzyme treatment: remained mostly unchanged
BONCAT, 1 mM AHA, 25 μM DBCO-Fl
  cellular fluorescence of L-azidohomoalanine/DBCO-Fl labeled cells after enzyme treatment: significant decrease
